First the molecules themselves.
B1: Alsin (Homo sapiens), Q96Q42 (parent)
chain: MDSKKRSSTEAEGSKERGLVHIWQAGSFPITPERLPGWGGKTVLQAALGVKHGVLLTEDGEVYSFGTLPWRSGPVEICPSSPILENALVGQYVITVATGSFHSGAVTDNGVAYMWGENSAGQCAVANQQYVPEPNPVSIADSEASPLLAVRILQLACGEEHTLALSISREIWAWGTGCQLGLITTAFPVTKPQKVEHLAGRVVLQVACGAFHSLALVQCLPSQDLKPVPERCNQCSQLLITMTDKEDHVIISDSHCCPLGVTLTESQAENHASTALSPSTETLDRQEEVFENTLVANDQSVATELNAVSAQITSSDAMSSQQNVMGTTEISSARNIPSYPDTQAVNEYLRKLSDHSVREDSEHGEKPVPSQPLLEEAIPNLHSPPTTSTSALNSLVVSCASAVGVRVAATYEAGALSLKKVMNFYSTTPCETGAQAGSSAIGPEGLKDSREEQVKQESMQGKKSSSLVDIREEETEGGSRRLSLPGLLSQVSPRLLRKAARVKTRTVVLTPTYSGEADALLPSLRTEVWTWGKGKEGQLGHGDVLPRLQPLCVKCLDGKEVIHLEAGGYHSLALTAKSQVYSWGSNTFGQLGHSDFPTTVPRLAKISSENGVWSIAAGRDYSLFLVDTEDFQPGLYYSGRQDPTEGDNLPENHSGSKTPVLLSCSKLGYISRVTAGKDSYLALVDKNIMGYIASLHELATTERRFYSKLSDIKSQILRPLLSLENLGTTTTVQLLQEVASRFSKLCYLIGQHGASLSSFLHGVKEARSLVILKHSSLFLDSYTEYCTSITNFLVMGGFQLLAKPAIDFLNKNQELLQDLSEVNDENTQLMEILNTLFFLPIRRLHNYAKVLLKLATCFEVASPEYQKLQDSSSCYECLALHLGRKRKEAEYTLGFWKTFPGKMTDSLRKPERRLLCESSNRALSLQHAGRFSVNWFILFNDALVHAQFSTHHVFPLATLWAEPLSEEAGGVNGLKITTPEEQFTLISSTPQEKTKWLRAISQAVDQALRGMSDLPPYGSGSSVQRQEPPISRSAKYTFYKDPRLKDATYDGRWLSGKPHGRGVLKWPDGKMYSGMFRNGLEDGYGEYRIPNKAMNKEDHYVGHWKEGKMCGQGVYSYASGEVFEGCFQDNMRHGHGLLRSGKLTSSSPSMFIGQWVMDKKAGYGVFDDITRGEKYMGMWQDDVCQGNGVVVTQFGLYYEGNFHLNKMMGNGVLLSEDDTIYEGEFSDDWTLSGKGTLTMPNGDYIEGYFSGEWGSGIKITGTYFKPSLYESDKDRPKVFRKLGNLAVPADEKWKAVFDECWRQLGCEGPGQGEVWKAWDNIAVALTTSRRQHRDSPEILSRSQTQTLESLEFIPQHVGAFSVEKYDDIRKYLIKACDTPLHPLGRLVETLVAVYRMTYVGVGANRRLLQEAVKEIKSYLKRIFQLVRFLFPELPEEGSTIPLSAPLPTERKSFCTGKSDSRSESPEPGYVVTSSGLLLPVLLPRLYPPLFMLYALDNDREEDIYWECVLRLNKQPDIALLGFLGVQRKFWPATLSILGESKKVLPTTKDACFASAVECLQQISTTFTPSDKLKVIQQTFEEISQSVLASLHEDFLWSMDDLFPVFLYVVLRARIRNLGSEVHLIEDLMDPYLQHGEQGIMFTTLKACYYQIQREKLN

This note sets out measurements from IntAct's records for PubMed 21300063.

Variants of B1 are the subject of one experiment. The following applies: with rab5a_human RAB5A.
Consider C157Y, for which the “effect of a mutation on the interaction” value is listed as “increasing interaction”.

Variants of B1 are the subject of a further experiment. Particulars: with eea1_human EEA1, Q15075.
Sequence of eea1_human EEA1, Q15075 (Q15075 whole entry): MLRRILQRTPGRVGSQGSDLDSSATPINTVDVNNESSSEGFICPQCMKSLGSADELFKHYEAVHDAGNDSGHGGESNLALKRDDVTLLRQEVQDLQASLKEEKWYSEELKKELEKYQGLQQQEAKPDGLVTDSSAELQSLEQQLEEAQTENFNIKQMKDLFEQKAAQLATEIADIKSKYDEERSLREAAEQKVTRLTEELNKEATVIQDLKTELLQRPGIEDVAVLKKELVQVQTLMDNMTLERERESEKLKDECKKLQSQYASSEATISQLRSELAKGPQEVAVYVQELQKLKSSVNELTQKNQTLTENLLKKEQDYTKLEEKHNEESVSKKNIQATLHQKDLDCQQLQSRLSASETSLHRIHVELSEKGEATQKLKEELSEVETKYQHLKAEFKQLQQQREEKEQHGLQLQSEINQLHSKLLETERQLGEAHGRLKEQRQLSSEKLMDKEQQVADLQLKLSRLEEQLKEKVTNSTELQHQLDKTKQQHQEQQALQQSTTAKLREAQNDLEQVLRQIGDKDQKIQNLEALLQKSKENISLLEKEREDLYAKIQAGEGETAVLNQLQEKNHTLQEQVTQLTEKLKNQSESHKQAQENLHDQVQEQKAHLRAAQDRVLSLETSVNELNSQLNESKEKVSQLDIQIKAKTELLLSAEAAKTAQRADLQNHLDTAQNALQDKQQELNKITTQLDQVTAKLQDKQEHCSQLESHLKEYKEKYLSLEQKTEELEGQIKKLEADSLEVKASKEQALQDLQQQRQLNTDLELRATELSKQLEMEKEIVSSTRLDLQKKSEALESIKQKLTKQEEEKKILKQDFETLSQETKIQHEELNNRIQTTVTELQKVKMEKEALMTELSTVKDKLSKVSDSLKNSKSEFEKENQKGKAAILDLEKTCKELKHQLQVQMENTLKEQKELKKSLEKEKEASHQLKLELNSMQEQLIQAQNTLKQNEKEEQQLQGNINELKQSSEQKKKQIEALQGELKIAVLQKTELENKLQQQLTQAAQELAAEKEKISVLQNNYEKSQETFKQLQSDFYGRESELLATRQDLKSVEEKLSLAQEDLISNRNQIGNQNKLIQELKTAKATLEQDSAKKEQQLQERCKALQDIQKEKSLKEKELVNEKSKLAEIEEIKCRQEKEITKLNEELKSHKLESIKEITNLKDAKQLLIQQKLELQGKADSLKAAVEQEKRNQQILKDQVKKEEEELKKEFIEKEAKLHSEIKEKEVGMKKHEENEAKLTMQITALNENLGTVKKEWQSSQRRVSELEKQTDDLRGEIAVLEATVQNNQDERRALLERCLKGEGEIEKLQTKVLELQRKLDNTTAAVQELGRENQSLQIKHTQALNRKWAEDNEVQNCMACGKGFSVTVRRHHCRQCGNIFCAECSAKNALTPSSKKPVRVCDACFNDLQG
For C157Y, the “effect of a mutation on the interaction” value was “disrupting interaction”.

Another experiment covers variants of B1. Particulars: with eea1_human EEA1, Q15075. The source holds these as a separate data set.
Take P1603A: the “effect of a mutation on the interaction” value is recorded as “disrupting interaction”.

The next experiment covers variants of B1. The following applies: with rab5a_human RAB5A. The source holds these as a separate data set.
G540E: the “effect of a mutation on the interaction” value is reported as “increasing interaction”.

The next experiment covers variants of B1. Particulars: with eea1_human EEA1, Q15075. This is another data set of the same source.
With G540E, the “effect of a mutation on the interaction” value is recorded as “disrupting interaction”.
